± gives the standard deviation.
Experiment: protein stability index of a GFP-peptide fusion (GPS, HEK-293T) (PSI 1-6); higher = more stable
Conditions: c terminus: a fixed tail appended
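Further: 24-mer peptide tiles fused after GFP, lentivirally expressed, FACS-sorted into six equal bins by GFP/DsRed ratio, decoded by Illumina sequencing, PSI is the read-weighted mean bin number.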

Sequence | protein stability index (treatment: DMSO) | protein stability index (treatment: MLN4924 1 uM, 8 h)
QRFEVIEFDDGSGSVLRIQPLRTP [PTPRD] | 2.68 ± 0.28 | 2.99 ± 0.21
TLSWYFLLCVNYFFYGETVTDYFF [CDS2] | 3.35 ± 0.64 | 3.48 ± 0.26
VRGPLQDSSWYEPSAELVQTRMAV [ZNF232] | 2.96 ± 0.17 | 3.09 ± 0.24
ATNPHVKPPYSYATLICMAMQASK [FOXJ1] | 2.29 ± 0.32 | 2.36 ± 0.064
AKAEGFTASTKNCMVGYDMGATRC [CPXM2] | 3.42 ± 0.31 | 3.62 ± 0.1
LVQSSRSEVTELRRVLQGLEIELQ [KRT16] | 3.1 ± 0.24 | 3.08 ± 0.38
SMDIARGLMVTCGTDRIVKIWDMT [WDFY1] | 2.25 ± 0.43 | 1.92 ± 0.33
QLWGQKKKNSNMTYEKLSRAMRYY [ELF3] | 2.29 ± 0.042 | 2.32 ± 0.25
ESGVHGALLALDENFDHNTLALIL [PPFIA4] | 2.75 ± 0.17 | 2.96 ± 0.27
YEELRNSERAEVQRLEEQERRHRE [RSPH3] | 5.4 ± 0.25 | 5.38 ± 0.28
NERMLESYLHAKKYLKPSGNMFPT [CARM1] | 2.59 ± 0.26 | 2.99 ± 0.37
PDSPATGAHWMRQLVSFQKLKLTN [TBX5] | 2.92 ± 0.35 | 3 ± 0.21
PSSLMETLEQHLNTLEGKKPGNNE [SNAP91] | 5.17 ± 0.09 | 5.05 ± 0.17
PELTITSLFSPVTEDSPLGTVVAL [PCDHGA10] | 2.56 ± 0.26 | 2.72 ± 0.33
SSISSTSNEQLKVTQEPRAKKGRR [ZMYND11] | 5.24 ± 0.48 | 5.45 ± 0.077
NIMMPMGGMMPPGPGIPPLMPGMP [ZNF207] | 2.87 ± 0.29 | 2.88 ± 0.13
VILGVTNPFFAKTLQHWPHIIRIG [DENND6A] | 2.94 ± 0.67 | 2.78 ± 0.46
LPREEEIVFPEKLNGSVLPGSGAP [ADAMTS4] | 4.49 ± 0.45 | 4.63 ± 0.46

Sequence | protein stability index (treatment: DMSO) | protein stability index (treatment: MLN4924 1 uM, 8 h)
KYKSFNRTAMPYGGYEKASKRMTF [MYOZ1] | 2.34 ± 0.31 | 2.57 ± 0.24
FLLFLLTGIVSVAFLLLPLPDELG [MOSPD3] | 3.36 ± 0.39 | 2.89 ± 0.9
YGRSDVVVLCFSIANPNSLHHVKT [RHOBTB2] | 3.33 ± 0.47 | 2.69 ± 1.8
SGTPKRYSLELGKAIKQKLWEALC [C22orf31] | 2.9 ± 0.67 | 2.9 ± 0.37
SEEAPSTSGMGFHAPKIGSNGVEM [SDE2] | 4.92 ± 0.17 | 4.89 ± 0.1
RMKKNGMEMTRPTPPHLTSAMAEN [NOL4L] | 4.41 ± 0.071 | 4.37 ± 0.29
RSPTLEPPRGRSEAPDSLNGPLGP [SMG5] | 4.89 ± 0.26 | 4.77 ± 0.055
AATQVFFALGLGFGGVIAFSSYNK [SLC6A17] | 2.64 ± 0.43 | 2.83 ± 0.67
MCKEHEDEKINIYCLTCEVPTCSM [TRIM63] | 3.35 ± 0.26 | 3.27 ± 0.35
QSFTLRGDHRSPASAQKFSSRSTV [NET1] | 3.92 ± 0.097 | 3.9 ± 0.3
AQFHCAYQLADWCLHHICTNYNNV [RHOBTB2] | 3.34 ± 0.36 | 3.15 ± 0.89
TIEERVNILFDFVKKKKEEGVIDS [EIF5] | 3.68 ± 0.065 | 3.39 ± 0.29
KSESSLPHQTSKMENLPGLASGPG | 4.87 ± 0.29 | 4.43 ± 0.33
REVRRAQARLLNPSATRAKPGPQD [NOP53] | 4.75 ± 0.28 | 4.66 ± 0.14
GGFAKCYEMTDLTNNKVYAAKIIP [PLK2] | 2.52 ± 0.38 | 2.81 ± 0.29
RSLFIDRTIVKGYNENVYTEDGKL [MED27] | 4.07 ± 0.25 | 4.12 ± 0.21
PDDSTSEDGIHTLTCALMLLNTDL [PSD2] | 3.12 ± 0.27 | 3.1 ± 0.34
EQHDLVYGDWTSGENSDGCYEHFA [CLPTM1] | 4.53 ± 0.22 | 4.41 ± 0.36

From the supplement of paper PMC10567573
